Molecular target: CDK2 protein (purchased from Sino Biological Inc.) (UniProt P24941 1-298)
Assay: SPR; CD147ICD immobilised on a CM5 chip; CDK2 injected at 30 µL/min; BSA signal subtracted
Settings: both partners purified

Kd: 16.7 µM
B1: intracellular portion of CD147 (ICD, 230-269) (domain or fragment)
chain: EKRRKPEDVLDDDDAGSAPLKSSGQHQNDKGKNVRQRNSS
notes: CD147 (basigin), human, residues 230-269, intracellular portion; also called CD147’s intracellular domain; CD147’s intracellular segment; source: E. coli OrigamiB (DE3), purified (expressed and purified in the same way as for CD147)
